In patent publication US12296016B2, “Ceramide-like lipid-based delivery vehicles and uses thereof” (Children's Medical Center Corporation, priority 2018, dated 2025):

Tests used:
[1] = mouse, in vivo, 2.5 nmol/kg
Experimental: The dose was 2.5 nmol/kg for 7 week old C57B/6J with an intranasal administration volume of 10 μL and an intraperitoneal injection volume of 200 μL.

[2] = system: human microvascular endothelial cells (HMECs); assay: Confocal fluorescence microscopy of lysosomal transport of GM1-peptides in HMECs; type: cell-based; conditions: 2 μM, 1 hour continuous uptake, Lysotracker-Red
Experimental: FIGS. 25A-25C. Confocal fluorescence microscopy images of lysosomal transport of GM1-peptides. (FIG. 25A) A schematic of endosomal sorting in human microvascular endothelial cells (HMECs). (FIG. 25B) Images HMECs incubated either with C16:0-GM1-peptide (top panels), or peptide alone (bottom panel). Cells were treated with 2 μM fluorescently green labeled compound for 1 hour for continuous uptake on coverslips, and imaged in the presence of Lysotracker-Red (red). […] Scale bars=10 μm.

[3] = Bioavailability and pharmacokinetics of peptide fused to GM1-C4:0 in rat (gastric route or intravenous injection); conditions: day one after intravenous injection
Experimental: Next, the bioavailability and pharmacokinetics of a peptide fused to GM-C4:0 was tested in vivo in rat.

[4] = mice, gastric gavage
Experimental: FIGS. 4A-4D. In vivo mouse studies. Absorption from intestine into blood for GM-fusion molecules 15 and 30 minutes after gastric gavage (FIG. 4A), and absorption from intestine into liver for GM-fusion molecules 1 hour after gastric gavage (FIG. 4B) are shown. […] Time course for absorption into blood was plotted (FIG. 4C). N=3 independent studies.

MDCK cells = assay: Transcytosis in MDCK cells (transwell assay, streptavidin pull-down, fluorescence)
Experimental: The in vitro transport (transcytosis) of the peptide-GM1 conjugates across a monolayer of MDCK cells, and in vivo transport across an intestinal or nasal barrier into the blood are assessed. The peptide alone are used as negative controls, and the GM1 analogs as positive controls. C6, and C12 fatty acid analogs of ceramide were also included in the experiments as direct comparisons to the GM1 and GM3 species.
MDCK cells were seeded in 0.33 cm^2 inserts 3 days prior in media containing HBSS and […] defatted BSA. Electrical resistance was checked on day of experiment.
• 1) peptide Control • 2) GM1-C6:0-peptide • 3) Peptide-C12 fatty acid • 4) Ceramide-C2-
• 1) Check electrical resistance by EVOM. • 2) Prepare stock solutions above. • 3) Wash cells apical and basolateral with HBSS, without FBS. […]
• 1) Washed Stretavidin Magnetic beads with TBS-T 4×, to remove azide. • 2) Resuspend heads in 800 uL TBS then aliquoted 50 uL out to each tube • 3) Add 1000 μL to streptavidin heads overnight at 4° C. with rotation O/N covered in foil. • 4) Remove media and wash 3×TBS-T. • 5) Elute by addition of 220 ul 95% Formamide. 10 mM EDTA 0.4 mg/ml biotin—2 min@65° C. • 6) Pipetted 100 uL of each sample×2 on 96 well plate • 7) Fluorescence was read out on a microplate reader for Fluorescein channel, and against a standard curve. […]

T84 intestinal cells = assay: Transcytosis across T84 intestinal cells; type: in vitro ADME
[5] = Nasal absorption of ceramide-C6 reporter peptide conjugate in mice; type: in vivo, C57BL/6J mice; conditions: 2 nmol/kg, blood 15 minutes post dose
Experimental: A reporter peptide was conjugated to a ceramide-C6 (Cer-C6) was administered to C57BL/6J mice (n=1, from Jackson Labs) at a dose of 2 nmol/kg. GM1-C6 conjugated to the same reported peptide was used as control. A total of 5 μl per nostril was administered over 5 minutes under isoflurane. Blood was collected via cardiac puncture 15 minutes post dose and the amount of the conjugate was evaluated by pulling down with magnetic streptavidin beads followed by elution and plate fluorescence measurement.

In the case of N=C(N)NCCC[C@@H](NC(=O)CNC(=O)[C@@H](Cc1ccc(O)cc1)NC(=O)CNC(=O)[C@@H](CO)NC(=O)CNC(=O)[C@@H](CCCCNC(=O)CCCC[C@@H]1SC[C@@H]2NC(=O)N[C@@H]21)NC(=O)[C@H](N)Cc1cn(CCCCCCNC(=O)c2ccc(-c3c4ccc(=N)c(S(=O)(=O)O)c-4oc4c(S(=O)(=O)O)c(N)ccc34)c(C(=O)O)c2)nn1)C(=O)NCC(=O)N[C@H](CO)C(=O)NCC(=O)N[C@H](CCCCNC(=O)CON)C(N)=O [peptide alone], the bioavailability [1] is reported as 1.3%, the intracellular localization [2] is reported as “did not enter into cells” and the “level in rat serum” value [3] is reported as 10.8 nmol/kg. The “absorption from intestine into blood and liver” value [4] was “not absorbed” and the “transcytosis across MDCK cell monolayer” value (MDCK cells; apical to basolateral, 37° C.) was “did not cross the epithelial barrier”.
Molecule CCCCCCCCCCCCC/C=C/[C@@H](O)[C@H](CO[C@@H]1O[C@H](CO)[C@@H](O[C@@H]2O[C@H](CO)[C@H](O[C@@H]3O[C@H](CO)[C@H](O)[C@H](O[C@@H]4O[C@H](CO)[C@H](O)[C@H](O)[C@H]4O)[C@H]3NC(C)=O)[C@H](O[C@]3(C(=O)O)C[C@H](O)[C@@H](NC(C)=O)[C@H](C=NOCC(=O)NCCCC[C@@H](NC(=O)CNC(=O)[C@@H](CO)NC(=O)CNC(=O)[C@@H](CCCNC(=N)N)NC(=O)CNC(=O)[C@@H](Cc4ccc(O)cc4)NC(=O)CNC(=O)[C@@H](CO)NC(=O)CNC(=O)[C@@H](CCCCNC(=O)CCCC[C@@H]4SC[C@@H]5NC(=O)N[C@@H]54)NC(=O)[C@H](N)Cc4cn(CCCCCCNC(=O)c5ccc(-c6c7ccc(=N)c(S(=O)(=O)O)c-7oc7c(S(=O)(=O)O)c(N)ccc67)c(C(=O)O)c5)nn4)C(N)=O)O3)[C@H]2O)[C@H](O)[C@H]1O)NC(=O)CCCCC [peptide fused to GM1-C6:0] has a bioavailability [1] of 24.4%.
In the case of AF488-LC9-oxime-C6-ceramide [Cer-C6], the “transcytosis across T84 intestinal cells” value (T84 intestinal cells) is reported as “greater than for peptides fused to GM1 or GM3 species”, the “absorption via the nose” value [5] is reported as “absorbed more efficiently than peptide conjugated to GM1-C6” and the “absorption via the nose” value ([5]; listed as ceramide C6) is reported as “absorbed via the nose”. The “absorption via the nose” value ([5]; listed as ceramide-C6-reporter peptide conjugate) was “can be absorbed via nose in mice” and the “transport with 4° C. temperature block” value (MDCK cells; MDCK) was “reduced the uptake”.
With “glucagon-like peptide-1 (GLP-1) [GLP-1 peptide alone]” the “effect on glucose metabolism in glucose tolerance test” value (mice, gastric gavage) was “no detectable effect on glucose metabolism” and the “absorption after gastric gavage” value (mouse, in vivo) was “not absorbed”.
